The values that follow come from patent US20020146805.

This data set deals with PFEK-protease T-6xHIS zymogen.
PFEK-protease T-6xHIS zymogen, sequence (chain, as listed by the source): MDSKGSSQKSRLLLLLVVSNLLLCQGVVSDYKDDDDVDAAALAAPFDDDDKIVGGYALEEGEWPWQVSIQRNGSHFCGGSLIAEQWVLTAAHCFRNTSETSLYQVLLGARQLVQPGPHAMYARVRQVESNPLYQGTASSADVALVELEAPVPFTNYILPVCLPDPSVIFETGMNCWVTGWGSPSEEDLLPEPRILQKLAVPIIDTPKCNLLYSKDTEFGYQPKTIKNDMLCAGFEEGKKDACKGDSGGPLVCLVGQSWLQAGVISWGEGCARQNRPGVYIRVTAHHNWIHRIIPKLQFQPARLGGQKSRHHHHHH

For the substance enterokinase, the “cleavage of the zymogen (SDS-PAGE and anti-FLAG Western blot)” value is “quantitative cleavage of the expressed and purified zymogen to generate the processed and activated protease”.
